Biological target: Hemoglobin A0 (HbA0) (UniProt P69905;P68871 P69905:2-142,P68871:2-147)
Assay: SPR; Biacore T200, HBS-P + 1 mM MgCl2 pH 7.4; method of Kd not explicitly stated
Conditions: tags: none; denatured

Hemoglobin A0 (HbA0), sequence (P69905 2-142, chain 1 of 2): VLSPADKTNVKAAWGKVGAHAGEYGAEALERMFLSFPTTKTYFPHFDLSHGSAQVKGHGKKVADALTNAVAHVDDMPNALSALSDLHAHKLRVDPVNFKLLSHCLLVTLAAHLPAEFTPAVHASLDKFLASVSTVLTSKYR
Hemoglobin A0 (HbA0), sequence (P68871 2-147, chain 2 of 2): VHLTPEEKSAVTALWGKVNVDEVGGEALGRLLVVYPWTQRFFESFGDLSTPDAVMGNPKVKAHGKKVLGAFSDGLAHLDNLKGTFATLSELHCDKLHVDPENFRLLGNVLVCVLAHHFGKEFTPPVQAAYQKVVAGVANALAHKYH

B1: RNA aptamer A (ssRNA)
RNA: GGGAUAGGAUCCACAUCUACGUAUUACGGCAUUAUUAGGACCAAUGCUGAGUACGGCGCACAGCUUUUUUCACUGCAGACUUGACGAAGCUUAAAAAAAAAAAAAAAAAA
modifications: 2'-F at A and U
Work on B1 yielded a Kd of 160 nM.
